Positions count from the first letter of the chain named. In names and notes the source's numbering stands. Where two headings read alike, the source gives them in different places.
B1: N73: E. coli EPSPS N-terminal fragment, N-terminus to residue 73 (protein, UniProt P0A6D3 1-73, looked up, fragment)
chain: MESLTLQPIARVDGTINLPGSKSVSNRALLLAALAHGKTVLTNLLDSDDVRHMLNALTALGVSYTLSADRTRC
B2: N383: E. coli EPSPS N-terminal fragment, N-terminus to residue 383 (protein, UniProt P0A6D3 1-383, looked up, fragment)
chain: MESLTLQPIARVDGTINLPGSKSVSNRALLLAALAHGKTVLTNLLDSDDVRHMLNALTALGVSYTLSADRTRCEIIGNGGPLHAEGALELFLGNAGTAMRPLAAALCLGSNDIVLTGEPRMKERPIGHLVDALRLGGAKITYLEQENYPPLRLQGGFTGGNVDVDGSVSSQFLTALLMTAPLAPEDTVIRIKGDLVSKPYIDITLNLMKTFGVEIENQHYQQFVVKGGQSYQSPGTYLVEGDASSASYFLAAAAIKGGTVKVTGIGRNSMQGDIRFADVLEKMGATICWGDDYISCTRGELNAIDMDMNHIPDAAMTIATAALFAKGTTTLRNIYNWRVKETDRLFAMATELRKVGAEVEEGHDYIRITPPEKLNFAEIATYN
B3: C74: E. coli EPSPS C-terminal fragment, residue 74 to C-terminus (protein, UniProt P0A6D3 74-427, looked up, fragment)
chain: EIIGNGGPLHAEGALELFLGNAGTAMRPLAAALCLGSNDIVLTGEPRMKERPIGHLVDALRLGGAKITYLEQENYPPLRLQGGFTGGNVDVDGSVSSQFLTALLMTAPLAPEDTVIRIKGDLVSKPYIDITLNLMKTFGVEIENQHYQQFVVKGGQSYQSPGTYLVEGDASSASYFLAAAAIKGGTVKVTGIGRNSMQGDIRFADVLEKMGATICWGDDYISCTRGELNAIDMDMNHIPDAAMTIATAALFAKGTTTLRNIYNWRVKETDRLFAMATELRKVGAEVEEGHDYIRITPPEKLNFAEIATYNDHRMAMCFSLVALSDTPVTILDPKCTAKTFPDYFEQLARISQAA
B4: C68: E. coli EPSPS C-terminal fragment, residue 68 to C-terminus (protein, UniProt P0A6D3 68-427, looked up, fragment)
chain: ADRTRCEIIGNGGPLHAEGALELFLGNAGTAMRPLAAALCLGSNDIVLTGEPRMKERPIGHLVDALRLGGAKITYLEQENYPPLRLQGGFTGGNVDVDGSVSSQFLTALLMTAPLAPEDTVIRIKGDLVSKPYIDITLNLMKTFGVEIENQHYQQFVVKGGQSYQSPGTYLVEGDASSASYFLAAAAIKGGTVKVTGIGRNSMQGDIRFADVLEKMGATICWGDDYISCTRGELNAIDMDMNHIPDAAMTIATAALFAKGTTTLRNIYNWRVKETDRLFAMATELRKVGAEVEEGHDYIRITPPEKLNFAEIATYNDHRMAMCFSLVALSDTPVTILDPKCTAKTFPDYFEQLARISQAA
B5: N371: E. coli EPSPS N-terminal fragment, N-terminus to residue 371 (protein, UniProt P0A6D3 1-371, looked up, fragment)
chain: MESLTLQPIARVDGTINLPGSKSVSNRALLLAALAHGKTVLTNLLDSDDVRHMLNALTALGVSYTLSADRTRCEIIGNGGPLHAEGALELFLGNAGTAMRPLAAALCLGSNDIVLTGEPRMKERPIGHLVDALRLGGAKITYLEQENYPPLRLQGGFTGGNVDVDGSVSSQFLTALLMTAPLAPEDTVIRIKGDLVSKPYIDITLNLMKTFGVEIENQHYQQFVVKGGQSYQSPGTYLVEGDASSASYFLAAAAIKGGTVKVTGIGRNSMQGDIRFADVLEKMGATICWGDDYISCTRGELNAIDMDMNHIPDAAMTIATAALFAKGTTTLRNIYNWRVKETDRLFAMATELRKVGAEVEEGHDYIRITPP
B6: N376: E. coli EPSPS N-terminal fragment, N-terminus to residue 376 (protein, UniProt P0A6D3 1-376, looked up, fragment)
chain: MESLTLQPIARVDGTINLPGSKSVSNRALLLAALAHGKTVLTNLLDSDDVRHMLNALTALGVSYTLSADRTRCEIIGNGGPLHAEGALELFLGNAGTAMRPLAAALCLGSNDIVLTGEPRMKERPIGHLVDALRLGGAKITYLEQENYPPLRLQGGFTGGNVDVDGSVSSQFLTALLMTAPLAPEDTVIRIKGDLVSKPYIDITLNLMKTFGVEIENQHYQQFVVKGGQSYQSPGTYLVEGDASSASYFLAAAAIKGGTVKVTGIGRNSMQGDIRFADVLEKMGATICWGDDYISCTRGELNAIDMDMNHIPDAAMTIATAALFAKGTTTLRNIYNWRVKETDRLFAMATELRKVGAEVEEGHDYIRITPPEKLNF
B7: N67: E. coli EPSPS N-terminal fragment, N-terminus to residue 67 (protein, UniProt P0A6D3 1-67, looked up, fragment)
chain: MESLTLQPIARVDGTINLPGSKSVSNRALLLAALAHGKTVLTNLLDSDDVRHMLNALTALGVSYTLS
B8: C32: E. coli EPSPS C-terminal fragment, residue 32 to C-terminus (protein, UniProt P0A6D3 32-427, looked up, fragment)
chain: AALAHGKTVLTNLLDSDDVRHMLNALTALGVSYTLSADRTRCEIIGNGGPLHAEGALELFLGNAGTAMRPLAAALCLGSNDIVLTGEPRMKERPIGHLVDALRLGGAKITYLEQENYPPLRLQGGFTGGNVDVDGSVSSQFLTALLMTAPLAPEDTVIRIKGDLVSKPYIDITLNLMKTFGVEIENQHYQQFVVKGGQSYQSPGTYLVEGDASSASYFLAAAAIKGGTVKVTGIGRNSMQGDIRFADVLEKMGATICWGDDYISCTRGELNAIDMDMNHIPDAAMTIATAALFAKGTTTLRNIYNWRVKETDRLFAMATELRKVGAEVEEGHDYIRITPPEKLNFAEIATYNDHRMAMCFSLVALSDTPVTILDPKCTAKTFPDYFEQLARISQAA
B9: EPSPS-G96A (protein, UniProt P0A6D3 1-427, looked up, variant G96A)
3-phosphoshikimate …: MESLTLQPIARVDGTINLPGSKSVSNRALLLAALAHGKTVLTNLLDSDDVRHMLNALTALGVSYTLSADRTRCEIIGNGGPLHAEGALELFLGNAATAMRPLAAALCLGSNDIVLTGEPRMKERPIGHLVDALRLGGAKITYLEQENYPPLRLQGGFTGGNVDVDGSVSSQFLTALLMTAPLAPEDTVIRIKGDLVSKPYIDITLNLMKTFGVEIENQHYQQFVVKGGQSYQSPGTYLVEGDASSASYFLAAAAIKGGTVKVTGIGRNSMQGDIRFADVLEKMGATICWGDDYISCTRGELNAIDMDMNHIPDAAMTIATAALFAKGTTTLRNIYNWRVKETDRLFAMATELRKVGAEVEEGHDYIRITPPEKLNFAEIATYNDHRMAMCFSLVALSDTPVTILDPKCTAKTFPDYFEQLARISQAA
B10: EPSPS: E. coli wild type full length 5-enolpyruvylshikimate-3-phosphate synthase (protein, UniProt P0A6D3 1-427, looked up)
chain: B9 3-phosphoshikimate … with A96G
modifications: full-length
notes: E. coli wild type full length 5-enolpyruvylshikimate-3-phosphate synthase

Legend:
[1] = tested on: aroA gene-mutant E. coli strain AB2829; assay: In vivo complementation: growth on solid M63 restrictive medium; type: cell-based; set-up: key: −: failed to grow; +: able to grow; settings: for complementation condition, N-terminal: N-terminal fragment alone; for complementation condition, C-terminal: C-terminal fragment alone
Source text: The pKU2100 plasmid constructed as described above and corresponding pACYC1184 plasmid were introduced separately or together into the strain AB2829 deficient in E. coli aroA gene. Then, the strain was streaked on solid M63 restrictive medium and cultured overnight to determine the growth.
In order to test if EPSPS achieves fragment complementation after in vivo expression, genes encoding EPSPS N-terminal peptides were constructed into pACYC184, and genes encoding EPSPS C-terminal peptides were constructed into pBR322 (see the section Materials and Methods for the detailed construction method). Afterwards, these plasmids were introduced into aroA gene-mutant E. coli strain AB2829. EPSPS activity of the protein fragments encoded by these genes was determined by the growth of the strains on M63 restrictive medium.
The pACYC184 and pBR322 plasmids are able to be expressed in the same bacterial cell since they have replicons p15A and ColE1 respectively. In this regard, a pACYC184 plasmid was co-introduced into aroA gene-mutant E. coli strain AB2829 together with a corresponding pKU2100 plasmid, wherein the N-terminal peptide encoded by the pACYC184 plasmid and C-terminal peptide encoded by the pKU2100 plasmid are the two fragments divided at the same site from EPSPS. The resulting strains are streaked on M63 restrictive medium, and cultured at 37° C.
The pBR322 plasmids constructed in section 3.5 a and their relevant pACYC1184 plasmids constructed in section 3.5 b were introduced respectively or together into E. coli strain AB2829 deficient in aroA gene. Then the strains were streaked on solid M63 restrictive medium and cultured overnight to test the growth.

[2] = tested on: aroA-mutant E. coli strain AB2829; assay: Growth in M63 restrictive media with different concentrations of glyphosate; type: cell-based
Protocol: aroA gene-mutant E. coli strains AB 2829 carrying plasmid pKU2004, pKU2006 or pKU2007 were inoculated in liquid LB medium and incubated overnight. A sample of the culture was centrifuged at 4000 rpm for 3 min and re-suspended in 0.9% physiological saline. After a further centrifugation, the supernatant was discarded. The pellets were re-suspended in physiological saline and inoculated at an initial concentration of OD600 0.04 into a liquid media comprising 0, 50 or 100 mM glyphosate for overnight culture at 37° C. Absorption (OD600) was measured at intervals.
In order to test whether the mutated EPSPS fragments perform functional complementation in vivo, plasmid pKU2105 and pKU2333 were constructed, which encode the N-terminal fragments N218-G96A and N227-G96A of E. coli EPSPS, respectively. They were introduced into aroA-mutant E. coli strain AB2829 (aroA−, from Yale University) together with their corresponding plasmids encoding C219 and C228 respectively. The growth was detected in the M63 restrictive media with different concentrations of glyphosate.

EPSPS = tested on: EPSPS
Protocol: (1) 95 μl substrate (50 mmol/L HEPES buffer (pH 7.5), 1 mmol/L PEP, 1 mmol/L S3P) was pre-warmed at 28 °C in an incubator for 5 min.
(2) 5 μl enzyme was added and the reaction was kept in an incubator at 28 °C for 1-20 min (depends on the enzyme activity). After that, 800 μl MG/AM/NP was added and the reaction was mixed for 1 min.
(3) 100 μl 34% sodium citrate was added and the reaction was mixed for half an hour. The OD660 was measured on a spectrometer.
The enzyme activities and the Km values to substrates of these three proteins were measured.

Molecule	complementation condition, N-terminal [1]	complementation condition, C-terminal [1]	further results
B1	−		
B2	−		
B3		−	
B4		−	
B5	−		
B6	−		
B7	−		
B8		−	
B9			growth in M63 medium containing 50 mM glyphosate [2]: grew well; growth in M63 medium containing 100 mM glyphosate ([2]; 100 mM glyphosate): still grew well
B10			growth in M63 medium containing 50 mM glyphosate [2]: inhibited from growth; specific activity (EPSPS; PEP and S3P both 1.0 mM): 44 ± 2 mol/min/mg; Km (EPSPS; read-out: Km [PEP], S3P 1 mM, PEP varied from 50 to 200 μM): 14 ± 3 µM; Km (EPSPS; read-out: Km [S3P], PEP 1 mM, S3P varied from 50 to 200 μM): 45 ± 1 µM

Source: patent US8936925B2, “Reconstitution of 5-enolpyruvylshikimate-3-phosphate synthase activity by fragment complementation” (priority 2004, dated 2015)
